Results reported in PMC3384324 (Nucleic Acids Research, 2012).

Biological target: the molecule itself
Test: cross-linking

B1: His6-PfORC1N_(1–238) (domain or fragment, Plasmodium falciparum 3D7, UniProt Q8I615 1-238, looked up)
chain: MTPKKKIFQNFQANDNEILSPTKKGIKLNVSKLNILNFENTIITKEKTNYEYKASLNKEIDEVLNNNNIINTHNNKKNNLNLYDYNNIKNSTHEFYIDLNEQNKQTIKYNDNKFTPINKKEKYNLDETSSSSISSSLTNISSSLTNISSSLTNISSSLSNSLDEKKKKKKIKKNNSTIINILNNNNNNSNIHHNNKHNIYNKYNISKKPQNKEIHTLPSNHQIKKKSNNTYNTCQQKM
- stoichiometry N: 2
